According to doi:10.1101/2021.03.17.435802:

Experiments:
ACE2(HH:NN)-Fc (human) = ACE2(HH:NN)-Fc (human) (UniProt Q9BYF1); assay: SPR
[1] = biological target: catalytically active ACE2-Fc (human) (UniProt Q9BYF1); assay: SPR

Substance: Angiotensin II (peptide)
- Kd (ACE2(HH:NN)-Fc (human)): 1300 nM
- Kd [1]: 117 nM
